# Laboratory results as given in US11179342B2, “Peptide coacervates and methods of use thereof” (NANYANG TECHNOLOGICAL UNIVERSITY, priority 2018, dated 2021).
# Entries after “also recorded” stand apart in the source; their conditions may differ.
# B1: V2-C: DgHBP-1 variant lacking the first 31 amino acids of the repetitive region, truncated at G98 (protein)
# chain: MHHHHHHSSGVDLGTENLYFQSMMGAGFAGHGLHGAGFAGHGLYGAGFAGHGLHGFAGHGLYGAGFAGHGLGLGGLHGALGHGALAHY
# modifications: HBP-1 derived peptide V2-C
# notes: DgHBP-1 variant lacking the first 31 amino acids of the repetitive region, truncated at G98
# B2: V6-N: N-terminus fragment of DgHBP-1 Lys mutant after trypsin cleavage (protein)
# chain: MQLYGAPAVGGVVENAVNAAESGAAATHDAQGAYAEADTAGVLDVNHAEHHDGVHDASGYGFGGLAGHGGFAGHGLYGPGFAGHGLLGAGYAGLGLHGAGFAGHGLHGAGFAGHGLYK
# modifications: HBP-1 derived peptide V6-N
# notes: N-terminus fragment of DgHBP-1 Lys mutant after trypsin cleavage
# B3: V5-N: N-terminus fragment of DgHBP-1 Lys mutant after trypsin cleavage (protein)
# chain: MQLYGAPAVGGVVENAVNAAESGAAATHDAQGAYAEADTAGVLDVNHAEHHDGVHDASGYGFGGLAGHGGFAGHGLYGPGFAGHGLLGAGYAGLGLHGAGFAGHGLHGAGFAK
# modifications: HBP-1 derived peptide V5-N
# notes: as for B2
# B4: V7-N: N-terminus fragment of DgHBP-1 Lys mutant after trypsin cleavage (protein)
# chain: MQLYGAPAVGGVVENAVNAAESGAAATHDAQGAYAEADTAGVLDVNHAEHHDGVHDASGYGFGGLAGHGGFAGHGLYGPGFAGHGLLGAGYAGLGLHGAGFAGHGLHGAGFAGHGLYGAGFAK
# modifications: HBP-1 derived peptide V7-N
# notes: as for B2
# B5: DgHBP-1: recombinant histidine-rich beak protein 1 of Humboldt squid (Dosidicus gigas) (protein)
# chain: QLYGAPAVGGVVENAVNAAESGAAATHDAQGAYAEADTAGVLDVNHAEHHDGVHDASGYGFGGLAGHGGFAGHGLYGPGFAGHGLLGAGYAGLGLHGAGFAGHGLHGAGFAGHGLYGAGFAGHGLHGFAGHGLYGAGFAGHGLGLGGLHGALGHGALAHY
# modifications: Dosidicus gigas
# B6: V4-N: N-terminus fragment of DgHBP-1 Lys mutant after trypsin cleavage (protein)
# chain: MQLYGAPAVGGVVENAVNAAESGAAATHDAQGAYAEADTAGVLDVNHAEHHDGVHDASGYGFGGLAGHGGFAGHGLYGPGFAGHGLLGAGYAGLGLHK
# modifications: HBP-1 derived peptide V4-N
# notes: as for B2
# B7: V3-N: N-terminus fragment of DgHBP-1 Lys mutant after trypsin cleavage (protein)
# chain: MQLYGAPAVGGVVENAVNAAESGAAATHDAQGAYAEADTAGVLDVNHAEHHDGVHDASGYGFGGLAGHGGFAGHGLYGPGFAGHGLLGAGYAGLGLHGAGFAK
# modifications: HBP-1 derived peptide V3-N
# notes: as for B2
# B8: V1-C: DgHBP-1 mutant lacking the first 66 amino acids, containing all C-terminal modular repeats (protein)
# chain: MHHHHHHSSGVDLGTENLYFQSMMGHGGFAGHGLYGPGFAGHGLLGAGYAGLGLHGAGFAGHGLHGAGFAGHGLYGAGFAGHGLHGFAGHGLYGAGFAGHGLGLGGLHGALGHGALAHY
# modifications: HBP-1 derived peptide V1-C
# notes: DgHBP-1 mutant lacking the first 66 amino acids, containing all C-terminal modular repeats
# B9: C-terminal (A82-R172): DgHBP-2 C-terminal trypsin fragment containing the whole repetitive region (protein)
# chain: AAQGANAVHNDAAQSHSALAAANTFGHGHAPYAAYGHGVYGHGPYGHGPYGHGLYGHGLYGHGPYGHGLYGHGAFGHGLNAYAPLVGHGLR
# modifications: C-terminal fargment of HBP-2
# notes: DgHBP-2 C-terminal trypsin fragment containing the whole repetitive region
# Assay: Liquid-liquid phase separation by optical microscopy
# Type: physicochemical
# Settings: not given
# Protocol: In Example 2 below, phase separation behavior of protein variants and peptides was studied using a Zeiss Axio Scope A1 microscope (Carl Zeiss Pte Ltd., Germany) in the reflection mode, with differential interference contrast (DIC) filters. Images were taken with an AxioCam MRc 5 camera under the control of AxioVision software.
# Liquid-liquid phase separation properties of protein variants and peptides at different buffer conditions were assessed using the method described in (Tan et al, Nat. Chem. Biol. 11, 488-495). Briefly, protein/peptide stock solution (10 mg/mL in 10 mM acetic acid, pH 3.3) was added to a buffer solution in a volume ratio 1:5 (protein/peptide stock:buffer). The mixture was then pipetted onto a microscopy glass slide and imaged using the optical microscope.
row,Molecule,protein concentration required to form coacervates
1,B1,ca. 30 μmol

# Same assay, conditions: N-variants, high salt
row,Molecule,highest pH at which LLPS was observed
1,B2,7
2,B3,≤ 6
3,B4,8

# Same assay, conditions: V7-N at pH 8, V6-N at pH 7, high salt
row,Molecule,minimal peptide concentration for LLPS at the highest pH
1,B2,400 μM
2,B4,at least 500 μM

# Same assay, conditions: at minimal concentration
row,Molecule,pH range of LLPS
1,B5,6.5-7.5

# Same assay, conditions: compared among variants
row,Molecule,range of conditions allowing LLPS
1,"V3-C: C-terminus fragment of DgHBP-1 Lys mutant after trypsin cleavage, longest section of repetitive region (GHGLHGAGFAGHGLYGAGFAGHGLHGFAGHGLYGAGFAGHGLGLGGLHGALGHGALAHY; HBP-1 derived peptide V3-C)",broadest pH range among all tested variants
2,B2,over a wider range of conditions
3,B3,only under narrow conditions
4,B4,over a wider range of conditions

# Same assay, conditions: optical micrographs after LLPS
row,Molecule,morphology of the separated phase
1,GHGLYGAGFAGAGFAGAGFAGHGLY (GHGLYGAGFAGAGFAGAGFAGHGLY) [GY-25-V1],dense and compact hydrogel
2,GHGLY GHGLY GHGLY GHGLY (GHGLYGHGLYGHGLYGHGLY) [GY-20],only formed micro-droplets
3,GHGLYGHGLHGHGLHGHGLHGHGLY (GHGLYGHGLHGHGLHGHGLHGHGLY) [GY-25-V2],only formed micro-droplets
4,B2,hydrogels
5,B3,hydrogels
6,B4,hydrogels

# Same assay, conditions: pH 8
row,Molecule,lowest protein concentration of phase separation [µM]
1,"V3-C: C-terminus fragment of DgHBP-1 Lys mutant after trypsin cleavage, longest section of repetitive region (GHGLHGAGFAGHGLYGAGFAGHGLHGFAGHGLYGAGFAGHGLGLGGLHGALGHGALAHY; HBP-1 derived peptide V3-C)",30

# Same assay, conditions: pH range 6.5-7.5
row,Molecule,minimal concentration for LLPS [µM]
1,B5,20 to 30

# Same assay, conditions: various pH and salt (NaCl) concentration
row,Molecule,ability to undergo LLPS / phase separation
1,GHGLY GHGLY GHGLY GHGLY (GHGLYGHGLYGHGLYGHGLY) [GY-20],Phase separation was observed
2,GA-25: synthetic peptide of HBP-1 repeats harboring only one GHGLY motif (GAGFAGHGLHGAGFAGHGLYGAGFA; HBP-1 derived peptide GA-25),remained in solution in all tested buffer conditions
3,GHGLY [pentapeptide],no phase separation was observed
4,GY-15-V2: GAGFA motif flanked by GHGLY (GHGLYGAGFAGHGLY; Artificial peptide GY-15-V2),no phase separation was observed
5,GY-15-V1: 3 copies of the GHGLY motif arranged in tandem (GHGLYGHGLYGHGLY),no phase separation was observed
6,GH-25: synthetic peptide of HBP-1 repeats harboring only one GHGLY motif (GHGLHGAGFAGHGLYGAGFAGHGLH; HBP-1 derived peptide GH-25),remained in solution in all tested buffer conditions
7,GAGFA [pentapeptide],no phase separation was observed
8,B6,could not be induced
9,B2,only at high salt concentrations
10,B7,could not be induced
11,B1,formed coacervates
12,B8,underwent phase separation and formed coacervates; also recorded: underwent LLPS in the same way as full-length protein
13,B3,only at high salt concentrations
14,B4,only at high salt concentrations
15,B9,phase-separated into coacervates

# Same assay, conditions: various pH and salt (NaCl) concentration; listed as V-2C
row,Molecule,ability to undergo LLPS / phase separation
1,B1,underwent LLPS in the same way as full-length protein
